Reference: article PMC10836395, “Investigation of how gate residues in the main channel affect the catalytic activity of Scytalidium thermophilum catalase” (Acta Crystallographica. Section D, Structural Biology, 2024)

What was measured:
[1] = substrate: CCn1c(=NN=c2sc3cc(S(=O)(=O)O)ccc3n2CC)sc2cc(S(=O)(=O)O)ccc21; experiment: purified protein, by the assay type; conditions: 60.0 °C
[2] = substrate: Oc1ccc(O)cc1; experiment: Spectrophotometric phenol oxidase assay without H2O2 at pH 7.0 and 60 °C, initial rates fitted to the Michaelis-Menten equation.; type: biochemical
Procedure: (§1) All inhibition assays were performed in triplicate.

[3] = substrate: Cc1ccc(O)c(O)c1; experiment: as above; type: biochemical
Procedure: as §1

[4] = substrate: CC(C)(C)c1ccc(O)c(O)c1; experiment: as above; type: biochemical
Procedure: as §1

[5] = substrate: Oc1ccccc1O; experiment: Spectrophotometric catechol oxidation assay at 420 nm, pH 7.0 and 60 °C; values not normalized to heme content.; type: biochemical
Procedure: as §1
Tabl e S1 Comparison of gate residues at the entrance of the main channel among large subunit […]
PDB ID e Organism Gate residues
Tabl e S2 K i neti c const ant s
**Catalase activity **Phenol oxidase activity
*KM-app kcat kcat/*KM-app KM kcat kcat/KM
(mM) (s-1) (s-1 M-1) (mM) (s-1) (s-1 M-1) Rz Heme
RZ = A407/A280. T he values were normalized to heme content in each CAT PO variant. T he values in parentheses are for unnor malized val ues a nd shaded in gre y for ease of vie wi ng. *KM-app is the H2O2 concentratio n at Vmax/2 […]
Michaelis–Menten kinetics (Switala & Loewen, 2002).
**One unit of catalase is defined as the amo unt that catalyses the degradation o f 1 µmol H2O2 in 1 min. One unit of phenol oxidase corresponds to the enzyme catalysing the formation of 1 nmol of product per minute.

[6] = substrate: Oc1ccccc1O; experiment: Phenol oxidase activity (H2O2-independent) measured spectrophotometrically by product formation at pH 7.0, 60 C, Michaelis-Menten fit.; type: biochemical
Procedure: as §1

Row | Protein | Km [1] [mM] | Km [2] [mM] | Km [3] [mM] | Km [4] [mM] | Km [5] [mM] | Km [6] [mM] | kcat [6] [s⁻¹] | kcat/Km [6] [M⁻¹ s⁻¹] | kcat [5] [s⁻¹] | kcat/Km [5] [M⁻¹ s⁻¹]
1 | E484I (Mycothermus thermophilus; E503I) (protein, recombinant, pET-28-TEV-CATPO; contains heme b; Rz 0.5) TCPFADPAALYSRQDTTSGQSPLAAYEVDDSTGYLTSDVGGPIQDQTSLKAGIRGPTLLEDFMFRQKIQHFDHERVPERAVHARGAGAHGTFTSYADWSNITAASFLNATGKQTPVFVRFSTVAGSRGSADTARDVHGFATRFYTDEGNFDIVGNNIPVFFIQDAIQFPDLIHSVKPRPDNEIPQAATAHDSAWDFFSQQPSTMHTLFWAMSGHGIPRSYRHMDGFGVHTFRFVKDDGSSKLIKWHFKSRQGKASLVWEEAQVLSGKNADFHRQDLWDAIESGNGPEWDVCVQIVDESQAQAFGFDLLDPTKIIPEEYAPLTKLGLLKLDRNPTNYFAETEQVMFQPGHIVRGIDFTEDPLLQGRLFSYLDTQLNRNGGPNFEQLPINMPRVPIHNNNRDGAGQMFIHRNKYPYTPNTLNSGYPRQANQNAGRGFFTAPGRTASGALVREVSPTFNDHWSQPRLFFNSLTPVEQQFLVNAMRFIISLVKSEEVKKNVLTQLNRVSHDVAVRVAAAIGLGAPDADDTYYHNNKTAGVSIVGSGPLPTIKTLRVGILATTSESSALDQAAQLRTRLEKDGLVVTVVAETLREGVDQTYSTADATGFDGVVVVDGAAALFASTASSPLFPTGRPLQIFVDAYRWGKPVGVCGGKSSEVLDAADVPEDGDGVYSEESVDMFVEEFEKGLATFRFTDRFALDS | 50 ± 0.5 | 45 ± 1.3 | 35 ± 0.7 | 37 ± 0.4 | 40 | 30 ± 1.0 | 26500 ± 1320 | 880000 ± 7200 | – | –
2 | T188A (Mycothermus thermophilus; T207A) (protein, recombinant, pET-28-TEV-CATPO; contains heme d; Rz 0.7) TCPFADPAALYSRQDTTSGQSPLAAYEVDDSTGYLTSDVGGPIQDQTSLKAGIRGPTLLEDFMFRQKIQHFDHERVPERAVHARGAGAHGTFTSYADWSNITAASFLNATGKQTPVFVRFSTVAGSRGSADTARDVHGFATRFYTDEGNFDIVGNNIPVFFIQDAIQFPDLIHSVKPRPDNEIPQAAAAHDSAWDFFSQQPSTMHTLFWAMSGHGIPRSYRHMDGFGVHTFRFVKDDGSSKLIKWHFKSRQGKASLVWEEAQVLSGKNADFHRQDLWDAIESGNGPEWDVCVQIVDESQAQAFGFDLLDPTKIIPEEYAPLTKLGLLKLDRNPTNYFAETEQVMFQPGHIVRGIDFTEDPLLQGRLFSYLDTQLNRNGGPNFEQLPINMPRVPIHNNNRDGAGQMFIHRNKYPYTPNTLNSGYPRQANQNAGRGFFTAPGRTASGALVREVSPTFNDHWSQPRLFFNSLTPVEQQFLVNAMRFEISLVKSEEVKKNVLTQLNRVSHDVAVRVAAAIGLGAPDADDTYYHNNKTAGVSIVGSGPLPTIKTLRVGILATTSESSALDQAAQLRTRLEKDGLVVTVVAETLREGVDQTYSTADATGFDGVVVVDGAAALFASTASSPLFPTGRPLQIFVDAYRWGKPVGVCGGKSSEVLDAADVPEDGDGVYSEESVDMFVEEFEKGLATFRFTDRFALDS | 52 ± 0.8 | 46 ± 0.4 | 35 ± 1.0 | 37 ± 1.0 | 33 ± 0.5 | – | – | – | 6700 ± 335 | 200000 ± 12000
3 | T188D (Mycothermus thermophilus; T207D) (protein, recombinant, pET-28-TEV-CATPO; contains heme b; Rz 0.5) TCPFADPAALYSRQDTTSGQSPLAAYEVDDSTGYLTSDVGGPIQDQTSLKAGIRGPTLLEDFMFRQKIQHFDHERVPERAVHARGAGAHGTFTSYADWSNITAASFLNATGKQTPVFVRFSTVAGSRGSADTARDVHGFATRFYTDEGNFDIVGNNIPVFFIQDAIQFPDLIHSVKPRPDNEIPQAADAHDSAWDFFSQQPSTMHTLFWAMSGHGIPRSYRHMDGFGVHTFRFVKDDGSSKLIKWHFKSRQGKASLVWEEAQVLSGKNADFHRQDLWDAIESGNGPEWDVCVQIVDESQAQAFGFDLLDPTKIIPEEYAPLTKLGLLKLDRNPTNYFAETEQVMFQPGHIVRGIDFTEDPLLQGRLFSYLDTQLNRNGGPNFEQLPINMPRVPIHNNNRDGAGQMFIHRNKYPYTPNTLNSGYPRQANQNAGRGFFTAPGRTASGALVREVSPTFNDHWSQPRLFFNSLTPVEQQFLVNAMRFEISLVKSEEVKKNVLTQLNRVSHDVAVRVAAAIGLGAPDADDTYYHNNKTAGVSIVGSGPLPTIKTLRVGILATTSESSALDQAAQLRTRLEKDGLVVTVVAETLREGVDQTYSTADATGFDGVVVVDGAAALFASTASSPLFPTGRPLQIFVDAYRWGKPVGVCGGKSSEVLDAADVPEDGDGVYSEESVDMFVEEFEKGLATFRFTDRFALDS | 55 ± 1.0 | 46 ± 1.0 | 30 ± 0.1 | 38 ± 0.5 | 33 | 25 ± 1.5 | 22300 ± 669 | 890000 ± 7000 | – | –
